Legend:
[1] = biological target: BIN1 (endogenous, primary neurons) (UniProt O08839); assay: proximity ligation assay, high-content screen; conditions: reference: DMSO-treated neurons; sites T231
[2] = biological target: Tau (endogenous, primary neurons) (UniProt P19332); assay: proximity ligation assay, high-content screen; conditions: reference: DMSO-treated neurons; sites T348
[3] = biological target: Tau (endogenous, rat primary hippocampal neurons) (rat (endogenous in primary hippocampal neurons)) (UniProt P19332); assay: proximity ligation; PLA in fixed rat primary hippocampal neuronal cultures (DIV7, 14, 21; lentiviral shBIN1 or overexpression at DIV8, read at DIV14; compound screen incl. Cyclosporin A and U0126 at DIV21); primary antibodies BIN1-99D (mouse) and Tau (rabbit); PLA volume or PLA:Tau ratio
Tau (endogenous, rat primary hippocampal neurons) (rat (endogenous in primary hippocampal neurons)), sequence (P19332 other isoform, or with tags, fused parts or gaps): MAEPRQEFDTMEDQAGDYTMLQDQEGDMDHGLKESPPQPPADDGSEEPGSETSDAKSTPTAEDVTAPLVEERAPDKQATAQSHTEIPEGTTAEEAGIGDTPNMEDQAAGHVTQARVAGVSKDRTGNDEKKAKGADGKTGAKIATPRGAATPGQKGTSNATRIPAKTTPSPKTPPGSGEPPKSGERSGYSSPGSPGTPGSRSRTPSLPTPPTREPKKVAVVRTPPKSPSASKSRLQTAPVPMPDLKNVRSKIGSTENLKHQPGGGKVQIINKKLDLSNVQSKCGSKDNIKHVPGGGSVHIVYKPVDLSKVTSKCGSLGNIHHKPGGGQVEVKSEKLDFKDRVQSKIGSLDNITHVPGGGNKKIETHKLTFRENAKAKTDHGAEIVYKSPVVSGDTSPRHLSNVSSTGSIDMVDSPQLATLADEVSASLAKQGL

BIN1iso1 phosphomimetic T348E, overexpressed in primary neurons, sequence (O08539 whole entry, stated change not applied): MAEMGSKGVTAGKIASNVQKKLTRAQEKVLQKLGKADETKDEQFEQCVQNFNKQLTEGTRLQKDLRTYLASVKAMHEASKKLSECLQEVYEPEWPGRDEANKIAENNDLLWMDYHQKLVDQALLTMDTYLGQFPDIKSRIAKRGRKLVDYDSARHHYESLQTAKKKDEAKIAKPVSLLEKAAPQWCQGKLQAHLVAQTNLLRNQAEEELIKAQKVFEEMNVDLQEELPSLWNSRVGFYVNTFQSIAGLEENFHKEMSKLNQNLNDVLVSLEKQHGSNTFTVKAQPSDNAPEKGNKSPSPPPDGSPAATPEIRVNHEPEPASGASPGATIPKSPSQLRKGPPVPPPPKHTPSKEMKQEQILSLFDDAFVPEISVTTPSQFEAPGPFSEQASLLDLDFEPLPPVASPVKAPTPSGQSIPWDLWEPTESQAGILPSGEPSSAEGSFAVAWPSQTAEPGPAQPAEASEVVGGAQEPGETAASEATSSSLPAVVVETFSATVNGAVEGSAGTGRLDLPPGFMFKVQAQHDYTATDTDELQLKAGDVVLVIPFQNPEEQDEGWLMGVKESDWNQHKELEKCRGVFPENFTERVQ

Question: “Tau (endogenous, primary neurons) (from UniProt P19332) U0126-treated neurons (MEK inhibitor)” was tested. Which other: percent decrease of PLA:Tau ratio [1] did it give?
Answer: 36.2%

Question: Which other: percent increase of PLA:Tau ratio [2] does the source give for “BIN1 (endogenous, primary neurons) (from UniProt O08839) Cyclosporin A-treated neurons (calcineurin inhibitor)” here?
Answer: 42.6%

Question: With “BIN1iso1 phosphomimetic T348E, overexpressed in primary neurons (from UniProt O08539-1 1-588) (natural protein)” as the substance, how does the fold PLA volume against BIN1iso1 (after normalization with BIN1 immunofluorescence) [3] read?
Answer: 2.1 fold

— paper PMC6778065
